Numbering of substitutions follows the chain as printed. Names may count otherwise.
Tests used:
FcγRIIIa [1] = target: T1, FcγRIIIa (human, UniProt P08637 17-208); assay: ratio of SPR KDs: KD of GpH7-A5/GpH7-B3/GpL16-k0 divided by KD of this antibody
T1 construct: extracellular domain; also called FcgRIIIa; CD16A; not shown: His tag attached to the C terminus
Procedure: (§1) The prepared antibodies were compared for the FcγRIIIa-binding activity using, as an indicator, KD for FcγRIIIa that was determined according to the method described in Reference Example 2.
(§2) Analysis of interaction between objective antibody and the FcγR was carried out using Biacore T100 (GE Healthcare). HBS-EP+ (GE Healthcare) was used as the running buffer, and the measurement temperature was set to 25° C. Chips produced by immobilizing the antigen peptide by the amine coupling method to a Series S Sencor Chip CM5 (GE Healthcare), or alternatively, chips produced by allowing preliminarily biotinylated antigen peptides to interact with and immobilize onto a Series S Sensor Chip SA (certified) (GE Healthcare) were used. Antibodies of interest were captured onto an antigen peptide-immobilized chip, and allowed to interact to each FcγR diluted with running buffer. To regenerate and repeatedly use the chip, the antibodies captured on the chip were washed off by reacting 10 mM glycine-HCl, pH 1.5.
(§3) Specifically, to calculate association rate constant ka (L/mol/s) and dissociation rate constant kd (1/s), sensorgrams obtained by measurement were processed for global fitting by Biacore Evaluation Software using 1:1 Langmuir binding model and dissociation constant KD (mol/1) was calculated from the resulting values.

FcγRIIIa [2] = target: T1, FcγRIIIa; assay: SPR (Biacore), antibody captured on antigen-peptide chip, FcγR as analyte; relative binding amount
Procedure: GpH7-TA8 (SEQ ID NO: 33) and GpH7-B12 (SEQ ID NO: 12) resulting from the introduction of P329R into GpH7-TA7 and GpH7-B3, respectively, were prepared according to the method described in Reference Example 1.
as §2

FcγRIIIa [3] = target: T1, FcγRIIIa; assay: as above; remark: listed apart in the source
Procedure: Specifically, GpH7-TA7 and GpH7-TA45 (SEQ ID NO: 32) resulting from the introduction of L234Y, G236W, and S298A into GpH7-A5 and GpH7-B3, respectively, were prepared according to the method described in Reference Example 1. […] These antibodies were compared for the FcγRIIIa binding according to the method described in Reference Example 2 (Table 10).
as §2

FcγRIIIa [4] = target: T1, FcγRIIIa; assay: ratio of SPR KDs: KD of GpH7-G1d/GpL16-k0 divided by KD of this antibody
Procedure: as §1, §2, §3

FcgRIIb [5] = target: T2, FcgRIIb (human, UniProt P31994 43-217); assay: SPR (Biacore); KD of GpH7-Kn033/GpH7-Hl033/GpL16-k0 for this FcγR divided by KD of this antibody
T2 construct: extracellular domain; also called FcγRIIb; CD32B
T2 sequence (looked up): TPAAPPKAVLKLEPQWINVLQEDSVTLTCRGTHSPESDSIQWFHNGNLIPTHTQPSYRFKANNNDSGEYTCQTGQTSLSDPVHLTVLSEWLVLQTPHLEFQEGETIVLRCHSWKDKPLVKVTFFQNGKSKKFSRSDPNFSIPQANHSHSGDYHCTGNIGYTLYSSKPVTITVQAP
Procedure: (§4) These antibodies were assessed for the binding activity to each FcγR according to the method described in Reference Example 2.
as §2

FcgRIIIa V = target: T3, FcgRIIIa V (human, UniProt P08637 17-208); assay: as above
T3 construct: extracellular domain; also called FcγRIIIa V; FcγRIIIaV
Procedure: as §4, §2

FcgRIa = target: T4, FcgRIa (human, UniProt P12314 16-292); assay: as above
T4 construct: extracellular domain; also called FcγRIa; FcγRI
Procedure: as §4, §2

FcgRIIa H = target: T5, FcgRIIa H (human, UniProt P12318 34-217); assay: as above
T5 construct: extracellular domain; also called FcγRIIa H; FcγRIIa type H
T5 sequence (looked up): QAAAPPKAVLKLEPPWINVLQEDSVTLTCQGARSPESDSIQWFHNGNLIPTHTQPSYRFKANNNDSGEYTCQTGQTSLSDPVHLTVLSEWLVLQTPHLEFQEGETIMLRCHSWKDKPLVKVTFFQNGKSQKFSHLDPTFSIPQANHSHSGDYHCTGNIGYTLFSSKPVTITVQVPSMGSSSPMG
Procedure: as §4, §2

FcgRIIa R = target: T6, FcgRIIa R (human, UniProt P12318 34-217); assay: as above
T6 construct: extracellular domain; also called FcγRIIa R; FcγRIIa type R
T6 sequence (looked up): T5 sequence (looked up) with H134R
Procedure: as §4, §2

FcgRIIIa F = target: T7, FcgRIIIa F (human, UniProt P08637 17-208); assay: as above
T7 construct: extracellular domain; also called FcγRIIIa F; FcγRIIIaF
Procedure: as §4, §2

FcgRIIaR = target: T8, FcgRIIaR (human, UniProt P12318 34-217); assay: SPR (Biacore), antibody captured on chip, FcgR extracellular domain as analyte
T8 construct: extracellular domain; Soluble extracellular domain with C-terminal His tag, expressed in FreeStyle293 cells; also called FcγRIIa R; FcgRIIa type R; not shown: His tag at the C terminus
T8 sequence (looked up): T5 sequence (looked up) with H134R

FcgRIIb [6] = target: T9, FcgRIIb (human, UniProt P31994 43-217); assay: as above
T9 construct: extracellular domain; Soluble extracellular domain with C-terminal His tag, expressed in FreeStyle293 cells; also called FcγRIIb; 2b; not shown: His tag at the C terminus
T9 sequence (looked up): T2 sequence (looked up)

FcgRIIb [7] = target: T9, FcgRIIb; assay: SPR (Biacore); KD of the variant for FcgRIIaR divided by its KD for FcgRIIb

T1 sequence (P08637 17-208): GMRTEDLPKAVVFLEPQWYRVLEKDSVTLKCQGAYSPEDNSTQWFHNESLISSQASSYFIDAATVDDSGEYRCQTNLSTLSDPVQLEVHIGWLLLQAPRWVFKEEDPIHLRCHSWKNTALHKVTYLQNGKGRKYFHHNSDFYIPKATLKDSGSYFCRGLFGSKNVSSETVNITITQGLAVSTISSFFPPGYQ
T3 sequence (P08637 17-208 F176V limits assumed): as the sequence (P08637 17-208) above, with F160V counted along it
T7 sequence (P08637 17-208): as the sequence (P08637 17-208) above
T4 sequence (P12314 16-292): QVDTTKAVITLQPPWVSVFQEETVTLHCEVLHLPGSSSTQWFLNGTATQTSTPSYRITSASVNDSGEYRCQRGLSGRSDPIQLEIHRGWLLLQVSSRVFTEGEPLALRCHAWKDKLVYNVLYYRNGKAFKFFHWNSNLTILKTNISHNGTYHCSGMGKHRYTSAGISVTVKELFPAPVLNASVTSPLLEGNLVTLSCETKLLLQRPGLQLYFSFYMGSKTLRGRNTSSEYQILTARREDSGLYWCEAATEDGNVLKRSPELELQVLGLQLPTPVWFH

B1: GpH7-A5/GpH7-B3/GpL16-k0 (antibody, human IgG1, kappa)
heavy 1: not shown
heavy 2: not shown
light: DIVMTQSPLSLPVTPGEPASISCQASESLVHSNRNTYLHWYLQKPGQSPQLLIYKVSNRFSGVPDRFSGSGSGTDFTLKISRVEAEDVGVYYCSQNTHVPPTFGQGTKVEIERTVAAPSVFIFPPSDEQLKSGTASVVCLLNNFYPREAKVQWKVDNALQSGNSQESVTEQDSKDSTYSLSSTLTLSKADYEKHKVYACEVTHQGLSSPVTKSFNRGEC
notes: also called HeCon Ab; control heterodimerized antibody
FcγRIIIa [1]
  KD ratio 2: 1 fold
FcγRIIIa [2]
  FcγRIIIa BINDING ACTIVITY (relative): 100 relative, GpH7-A5/GpH7-B3/GpL16-k0 = 100
FcγRIIIa [3]
  FcγR BINDING ACTIVITY (relative FcγRIIIa binding): 100 relative, GpH7-A5/GpH7-B3/GpL16-k0 = 100
FcγRIIIa [4]
  KD ratio 1: 0.75 fold

B2: GpH7-TA8/GpH7-B3/GpL16-k0 (antibody, human IgG1, kappa)
heavy 1: QVQLVQSGAEVKKPGASVTVSCKASGYTFTDYEMHWIRQPPGEGLEWIGAIDPKTGDTAYSESFQDRVTLTADKSTSTAYMELSSLTSEDTAVYYCTRFYSYTYWGQGTLVTVSSASTKGPSVFPLAPSSKSTSGGTAALGCLVKDYFPEPVTVSWNSGALTSGVHTFPAVLQSSGLYSLSSVVTVPSSSLGTQTYICNVNHKPSNTKVDKKVEPKSCDKTHTCPPCPAPEYLWGPSVFLFPPKPKDTLMISRTPEVTCVVVDVSHEDPEVKFNWYVDGVEVHNAKTKPREEQYNATYRVVSVLTVLHQDWLNGKEYKCKVSNKALRAPIEKTISKAKGQPREPQVYTLPPSRKELTKNQVSLTCLVKGFYPSDIAVEWESNGQPENNYKTTPPVLDSDGSFFLYSKLTVDKSRWQQGNVFSCSVMHEALHNRYTQKSLSLSP
heavy 2: not shown
light: B1 light
notes: Anti-glypican-3 IgG1 heterodimer; L234Y/G236W/S298A/P329R all in H1
FcγRIIIa [2]
  FcγRIIIa BINDING ACTIVITY (relative): 150 relative, GpH7-A5/GpH7-B3/GpL16-k0 = 100

B3: GpH7-TA7/GpH7-TA45/GpL16-k0 (antibody, human IgG1, kappa)
heavy 1: B2 heavy 1 with R327P
heavy 2: B2 heavy 1 with R327P, K354D, R433H, K437E
light: B1 light
notes: Anti-glypican-3 IgG1; The two chains differ only in D356K/H435R and K439E
FcγRIIIa [1]
  KD ratio 2: 0.49 fold
FcγRIIIa [3]
  FcγR BINDING ACTIVITY (relative FcγRIIIa binding): 48 relative, GpH7-A5/GpH7-B3/GpL16-k0 = 100
FcγRIIIa [4]
  KD ratio 1: 0.37 fold

B4: GpH7-Kn056/GpH7-Hl055/GpL16-k0 (antibody, human IgG1, kappa)
heavy 1: B2 heavy 1 with L233Y, W234A, H266D, Q293L, R327P, Y347C, K354D, T364W, R433H
heavy 2: QVQLVQSGAEVKKPGASVTVSCKASGYTFTDYEMHWIRQPPGEGLEWIGAIDPKTGDTAYSESFQDRVTLTADKSTSTAYMELSSLTSEDTAVYYCTRFYSYTYWGQGTLVTVSSASTKGPSVFPLAPSSKSTSGGTAALGCLVKDYFPEPVTVSWNSGALTSGVHTFPAVLQSSGLYSLSSVVTVPSSSLGTQTYICNVNHKPSNTKVDKKVEPKSCDKTHTCPPCPAPELLAGPDVFLFPPKPKDTLMISRTPEVTCVVVDVSHEDPEVKFNWYVDGVEVHNAKTKPREELYNSTYRVVSVLTVLHQDWLNGKEYKCKVSNKALPMPEEKTISKAKGQPREPQVYTLPPSRCELTKNQVSLSCAVKGFYPSDIAVEWESNGQPENNYKTTPPVLDSDGSFFLVSKLTVDKSRWQQGNVFSCSVMHEALHNHYTQKSLSLSP
light: B1 light
notes: Heterodimerized antibody: knob chain L234Y/L235Y/G236A/H268D/Q295L/S298A, hole chain G236A/S239D/Q295L/A330M/I332E; also called Kn056/Hl055
FcgRIIb [5]
  KD ratio: 14 fold
FcgRIIIa V
  KD ratio: 327 fold
FcgRIa
  KD ratio: 2.9 fold
FcgRIIa H
  KD ratio: 20 fold
FcgRIIa R
  KD ratio: 44 fold
FcgRIIIa F
  KD ratio: 1110 fold

B5: GpH7-A5/GpH7-TA45/GpL16-k0 (antibody, human IgG1, kappa)
heavy 1: not shown
heavy 2: B2 heavy 1 with R327P, K354D, R433H, K437E
light: B1 light
notes: Anti-glypican-3 IgG1 heterodimer; L234Y/G236W/S298A in H2 only
FcγRIIIa [3]
  FcγR BINDING ACTIVITY (relative FcγRIIIa binding): 225 relative, GpH7-A5/GpH7-B3/GpL16-k0 = 100

B6: GpH7-TA7/GpH7-B12/GpL16-k0 (antibody, human IgG1, kappa)
heavy 1: B2 heavy 1 with R327P
heavy 2: not shown
light: B1 light
notes: Anti-glypican-3 IgG1 heterodimer; L234Y/G236W/S298A in H1, P329R in H2
FcγRIIIa [2]
  FcγRIIIa BINDING ACTIVITY (relative): 11 relative, GpH7-A5/GpH7-B3/GpL16-k0 = 100

B7: IL6R-BP256/IL6R-L (antibody, human IgG1, kappa)
heavy: QVQLQESGPGLVKPSETLSLTCAVSGHSISHDHAWSWVRQPPGEGLEWIGFISYSGITNYNPSLQGRVTISRDNSKNTLYLQMNSLRAEDTAVYYCARSLARTTAMDYWGEGTLVTVSSASTKGPSVFPLAPSSKSTSGGTAALGCLVKDYFPEPVTVSWNSGALTSGVHTFPAVLQSSGLYSLSSVVTVPSSSLGTQTYICNVNHKPSNTKVDKKVEPKSCDKTHTCPPCPAPDLLGDDDVFLFPPKPKDTLMISRTPEVTCVVVDVSDEDGEVKFNWYVDGVEVHNAKTKPREEQYNSTYRVVSVLTVLHQDWLNGKEYKCKVSNKALPRPIEKTISKAKGQPREPQVYTLPPSRDELTKNQVSLTCLVKGFYPSDIAVEWESNGQPENNYKTTPPVLDSDGSFFLYSKLTVDKSRWQQGNVFSCSVMHEALHNHYTQESLSLSP
light: not shown
notes: Homodimerized antibody, S239D in both H chains
FcgRIIaR
  Relative KD (KD of IL6R-B3/IL6R-L divided by KD of the variant): 1.5
FcgRIIb [6]
  Relative KD (KD of IL6R-B3/IL6R-L divided by KD of the variant): 35.7
FcgRIIb [7]
  KD(IIaR)/KD(IIb): 8.4

B8: IL6R-BP257/IL6R-L (antibody, human IgG1, kappa)
heavy: B7 heavy with D241E
light: not shown
notes: Homodimerized antibody, S239E in both H chains
FcgRIIaR
  Relative KD (KD of IL6R-B3/IL6R-L divided by KD of the variant): 0.9
FcgRIIb [6]
  Relative KD (KD of IL6R-B3/IL6R-L divided by KD of the variant): 7.2
FcgRIIb [7]
  KD(IIaR)/KD(IIb): 3

From US20150344570A1 (published 2015)
